From patent publication US20230250147A1, “GLP-1R AGONISTIC PEPTIDES WITH REDUCED ACTIVITY” (SANOFI, priority 2020, published 2023)
Marks after values point to notes of the source that are not given here. No end group written: not given here.

How the values were obtained:
Human GLP-1R = molecular target: T1, Human GLP-1R (Homo sapiens, UniProt P43220); assay: HTRF cAMP assay in HEK-293 cells, human GLP-1R; format: cell-based
T1 construct: expressed in transfected cells; host or cells: HEK-293
Experimental: (§1) Recombinant HEK-293 cells were grown in T175 culture flasks placed at 37° C. to near confluence in medium (DMEM with 10% FBS) and collected in 2 mL vials in cell culture medium containing 10% DMSO in concentrations of 1-5×10^7 cells/mL. Each vial contained 1.8 mL cell suspension. The vials were slowly frozen to −80° C. in an isopropanol chamber, and then transferred to liquid nitrogen for long term storage.
(§2) Prior to their use, frozen cells were thawed quickly at 37° C., washed with 20 mL cell buffer (1×HBSS; 20 mM HEPES, 0.1% BSA) and centrifuged for 5 minutes at 900 rpm. Cells were resuspended in assay buffer (cell buffer plus 2 mM IBMX) and adjusted to a cell density of 1×10^6 cells/mL. For measurement, 5 μL cell suspension (final 5×10^3 cells/well) and 5 μL of test compound were added to a well of a 384-well plate, followed by incubation for 30 minutes at room temperature. […] The cAMP content of cells was determined using a kit from Cisbio Corp. (cat. no. 62AM4PEC) based on Homogenous Time Resolved Fluorescence (HTRF).

Mouse GLP-1R = molecular target: T2, Mouse GLP-1R (Mus musculus, UniProt O35659); assay: HTRF cAMP assay in HEK-293 cells, mouse GLP-1R; format: cell-based
T2 construct: expressed in transfected cells; host or cells: HEK-293
T2 sequence (O35659 22-463): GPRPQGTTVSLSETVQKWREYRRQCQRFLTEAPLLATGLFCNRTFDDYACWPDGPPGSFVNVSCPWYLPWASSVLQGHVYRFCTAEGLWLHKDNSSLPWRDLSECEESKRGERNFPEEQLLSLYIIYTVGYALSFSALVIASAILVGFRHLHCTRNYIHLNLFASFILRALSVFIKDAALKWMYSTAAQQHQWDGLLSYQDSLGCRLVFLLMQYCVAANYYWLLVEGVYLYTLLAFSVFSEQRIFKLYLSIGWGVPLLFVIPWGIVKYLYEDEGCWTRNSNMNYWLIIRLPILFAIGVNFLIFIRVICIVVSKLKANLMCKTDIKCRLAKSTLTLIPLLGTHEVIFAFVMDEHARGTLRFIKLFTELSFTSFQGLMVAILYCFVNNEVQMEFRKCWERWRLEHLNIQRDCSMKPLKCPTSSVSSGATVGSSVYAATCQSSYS
Experimental: as §1, §2

Monkey GLP-1R = molecular target: T3, Monkey GLP-1R (Macaca fascicularis, UniProt F8V479); assay: HTRF cAMP assay in HEK-293 cells, monkey GLP-1R; format: cell-based
T3 construct: expressed in transfected cells; host or cells: HEK-293
T3 sequence (F8V479 24-463): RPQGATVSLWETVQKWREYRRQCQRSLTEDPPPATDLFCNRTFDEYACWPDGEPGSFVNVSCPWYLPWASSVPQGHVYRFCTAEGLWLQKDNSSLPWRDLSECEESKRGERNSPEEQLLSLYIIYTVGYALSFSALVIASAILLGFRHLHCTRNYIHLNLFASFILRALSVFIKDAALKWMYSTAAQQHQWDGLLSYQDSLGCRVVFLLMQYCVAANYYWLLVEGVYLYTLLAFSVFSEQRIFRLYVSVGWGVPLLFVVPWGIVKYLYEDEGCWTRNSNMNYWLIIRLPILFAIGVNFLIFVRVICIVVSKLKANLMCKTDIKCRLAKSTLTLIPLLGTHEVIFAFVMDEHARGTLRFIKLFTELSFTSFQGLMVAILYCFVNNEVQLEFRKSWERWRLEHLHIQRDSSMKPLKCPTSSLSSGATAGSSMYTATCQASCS
Experimental: as §1, §2

[1] = molecular target: T4, human FGFR1c together with human beta-Klotho (KLB) (human, UniProt P11362 22-822; Q86Z14 1-1044); assay: cell-based or functional assay
T4 sequence (P11362 22-822, chain 1 of 2): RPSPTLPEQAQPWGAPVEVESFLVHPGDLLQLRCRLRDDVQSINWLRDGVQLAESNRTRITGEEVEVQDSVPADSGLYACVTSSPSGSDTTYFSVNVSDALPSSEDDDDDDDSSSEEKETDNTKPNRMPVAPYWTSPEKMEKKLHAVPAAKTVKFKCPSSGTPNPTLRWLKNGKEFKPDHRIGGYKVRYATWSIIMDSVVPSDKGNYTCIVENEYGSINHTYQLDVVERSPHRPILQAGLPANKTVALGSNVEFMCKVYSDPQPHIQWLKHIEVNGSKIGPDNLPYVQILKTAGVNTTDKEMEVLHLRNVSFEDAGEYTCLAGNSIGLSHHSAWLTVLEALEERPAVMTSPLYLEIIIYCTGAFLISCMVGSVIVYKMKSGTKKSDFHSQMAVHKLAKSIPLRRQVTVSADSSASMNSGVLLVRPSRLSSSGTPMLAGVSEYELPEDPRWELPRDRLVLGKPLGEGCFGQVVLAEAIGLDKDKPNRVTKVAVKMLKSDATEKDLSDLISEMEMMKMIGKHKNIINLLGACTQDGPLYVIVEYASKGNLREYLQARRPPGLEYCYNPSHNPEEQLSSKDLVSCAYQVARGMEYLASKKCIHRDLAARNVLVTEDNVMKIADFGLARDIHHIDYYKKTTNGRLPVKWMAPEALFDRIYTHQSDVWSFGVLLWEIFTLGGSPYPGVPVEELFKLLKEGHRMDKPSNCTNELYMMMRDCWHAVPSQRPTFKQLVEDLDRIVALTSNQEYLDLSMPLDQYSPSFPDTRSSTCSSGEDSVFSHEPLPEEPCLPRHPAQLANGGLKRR
T4 sequence (Q86Z14 whole entry, chain 2 of 2): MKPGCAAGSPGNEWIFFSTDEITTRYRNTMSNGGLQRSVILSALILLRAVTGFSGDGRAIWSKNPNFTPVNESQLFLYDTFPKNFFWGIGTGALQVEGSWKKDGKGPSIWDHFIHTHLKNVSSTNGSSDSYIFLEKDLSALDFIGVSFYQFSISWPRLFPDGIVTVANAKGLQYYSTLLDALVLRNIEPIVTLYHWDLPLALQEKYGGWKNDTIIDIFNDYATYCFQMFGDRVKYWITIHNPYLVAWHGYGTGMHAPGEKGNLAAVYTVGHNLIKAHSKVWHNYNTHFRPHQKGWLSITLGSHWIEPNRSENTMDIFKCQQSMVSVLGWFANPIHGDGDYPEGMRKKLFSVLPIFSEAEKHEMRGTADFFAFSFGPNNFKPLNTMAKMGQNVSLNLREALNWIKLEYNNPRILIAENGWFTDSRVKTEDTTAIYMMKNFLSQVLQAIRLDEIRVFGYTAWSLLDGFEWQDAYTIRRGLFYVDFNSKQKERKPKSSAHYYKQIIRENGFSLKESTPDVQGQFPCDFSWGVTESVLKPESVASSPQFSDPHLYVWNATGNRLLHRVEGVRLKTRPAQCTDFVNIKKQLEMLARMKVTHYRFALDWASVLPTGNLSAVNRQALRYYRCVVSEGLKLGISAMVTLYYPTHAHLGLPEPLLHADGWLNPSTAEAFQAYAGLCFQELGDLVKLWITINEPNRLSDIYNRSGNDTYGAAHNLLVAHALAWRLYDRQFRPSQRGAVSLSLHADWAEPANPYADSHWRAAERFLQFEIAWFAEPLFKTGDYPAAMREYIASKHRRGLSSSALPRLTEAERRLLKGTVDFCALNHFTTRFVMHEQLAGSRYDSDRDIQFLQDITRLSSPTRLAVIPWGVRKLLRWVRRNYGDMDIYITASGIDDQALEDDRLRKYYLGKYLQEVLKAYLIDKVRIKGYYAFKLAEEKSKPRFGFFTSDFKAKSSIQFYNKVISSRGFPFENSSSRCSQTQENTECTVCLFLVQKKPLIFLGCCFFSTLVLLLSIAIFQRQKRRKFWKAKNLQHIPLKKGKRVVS

[2] = molecular target: T4, human FGFR1c together with human …; assay: cell-based or functional assay; remark: listed apart in the source
[3] = Thermal shift assay (DSF, Sypro Orange); format: physicochemical; settings: Data generated via DSF
Excerpt: In addition, for some proteins a thermal shift assay was applied to analyze thermostability in imitation of differential scanning fluorimetry (DSF or ThermoFluor™) assays (Ahmad S. et al. (2012) Protein Science 21: 433-446; Pantoliano et al. (2001) J. Biomol. Screen 6: 429-440; Niesen et al. (2007) Nat. Protoc. 2: 2212-21). This assay is based on the observation that hydrophobic fluorescent dyes, such as Sypro™ Orange (Life Technologies, cat. No. S6651), increase their fluorescence when they bind to hydrophobic patches on a protein.
Proteins were tested by mixing a solution of each protein in PBS (Gibco) with a 160× solution of Sypro™Orange (diluted in water from a 5000×DMSO stock as provided by the supplier). The sample volume was adjusted to 20 μL with PBS. Typical conditions contained 0.8 mg/mL protein and 8× Sypro™Orange in the final mixture, but protein concentrations could be varied between 0.4 mg/mL and 1.2 mg/mL. Samples were dispensed in 96-well PCR plates (BioRad Semi-Skirt 96 white) and shortly centrifuged to remove air bubbles. […] For excitation and quantification of fluorescence, filters for wavelengths of 485 nm and 575 nm were chosen. […] In curves of fluorescence intensity against temperature, the inflection point was chosen as the measure for the melting temperature (Tm).

[4] = Pharmacokinetics after single subcutaneous administration in mouse; format: in vivo, female C57BI/6 mice; settings: FGF21 intact assay; 0.3 mg/kg subcutaneous
Experimental: Plasma concentrations and pharmacokinetic parameters of GLP-1 RA/FGF21 Fc fusion proteins were determined after single subcutaneous administration of 0.3 mg/kg in solution to female C57BI/6 mice or male Cynomolgus monkeys using three different methods. Blood samples were obtained at time points from 30 minutes to 168 hours after dosing. […]
a.) Bioanalytical Screening Method for Quantification of the Intact FGF21 Part of the GLP-1 RA/FGF21 Fc Fusion Proteins Plasma samples were analyzed for the intact FGF21 part of the fusion proteins with an ELISA kit (F1231-K01, Eagle Biosciences, USA). […] For the detection of this immunocomplex, the well was then incubated with a substrate solution in a timed reaction and then measured in a spectrophotometric microplate reader. […]
b.) Bioanalytical Screening Method for Quantification of the Intact Full-Length Fusions Proteins The concentration of the full-length GLP-1RA/FGF21 Fc fusion proteins in plasma were determined utilizing an ELISA method. […] Following washing 3 times with 300 μL PBS-T 150 μL read buffer was added to the wells. […]
c.) Bioanalytical Screening Method for Quantification of the Intact GLP-1 Part of the GLP-1 FGF21 Fc Fusion Proteins Plasma samples were analyzed for the intact GLP-1 part of the fusion proteins with a GLP-1 ELISA method. […]

T1 sequence (P43220 24-463): as the sequence (F8V479 24-463) above, with N112S, S120F, G202S, V205L, F237L, R241W, V249I counted along it

With “GHGEGTFTSDKSKQLEEEAVRLFIEWLKAGGPKKIRYS-NH2 [compound 278]” the EC50 (Human GLP-1R) was 10.5 pM, the EC50 (Mouse GLP-1R) was 7.65 pM and the EC50 (Monkey GLP-1R) was 5.74 pM.

B1: G-FGF21 (mature human wild-type FGF21 with an additional N-terminal Gly) (ligand)
chain: GHPIPDSSPLLQFGGQVRQRYLYTDDAQQTEAHLEIREDGTVGGAADQSPESLLQLKALKPGVIQILGVKTSRFLCQRPDGALYGSLHFDPEACSFRELLLEDGYNVYQSEAHGLPLHLPGNKSPHRDPAPRGPARFLPLPGLPPAPPEPPGILAPQPPDVGSSDPLSMVGPSQGRSPSYAS
In the case of B1, the “pFGFR ICW EC50” value [1] is reported as 4.49 nmol/L and the “pERK ICW EC50” value [2] is reported as 0.17 nmol/L.

B2: 252 (protein)
chain: B1 chain
modifications: G-FGF21
In the case of B2, the “Tm (melting temperature)” value [3] is reported as 43.1* ° C and the t1/2 mouse [4] is reported as 42 min.
